# Laboratory results reported in the Human Domainome abundance scans (Beltran et al. 2025).
# ± gives the uncertainty stated by the source.
# B1: Homeobox protein cut-like 1, residues 941 to 1008; numbered along this chain, P39880 (parent)
# chain: QEVDTIELTRQVKEKLAKNGICQRIFGEKVLGLSQGSVSDMLSRPKPWSKLTQKGREPFIRMQLWLNG
# Variants of: B1
# Test: abundance fitness (aPCA) (normalised: wild type 0, dead -1); higher = more abundant; growth selection in yeast, the domain comes from the species named
# Settings: Homo sapiens
row,Variant,abundance fitness
1,QEVDTIELTRQVKEKLAKNGICQRIFGEKVLMLSQGSVSDMLSRPKPWSKLTQKGREPFIRMQLWLNG [G32M],-0.226 ± 0.088
2,QEVDTIELTRQVKEKLAKNGICQRIFGEKVLYLSQGSVSDMLSRPKPWSKLTQKGREPFIRMQLWLNG [G32Y],-0.415 ± 0.096
3,QEVDTIELTRQVKEKLAKNGICQRIFGEKVLSLSQGSVSDMLSRPKPWSKLTQKGREPFIRMQLWLNG [G32S],-0.195 ± 0.054
4,QEVDTIELTRQVKEKLAKNGICQRIFGEKVLLLSQGSVSDMLSRPKPWSKLTQKGREPFIRMQLWLNG [G32L],-0.273 ± 0.054
5,QEVDTIELTRQVKEKLAKNGICQRIFGEKVLTLSQGSVSDMLSRPKPWSKLTQKGREPFIRMQLWLNG [G32T],-0.29 ± 0.071
6,QEVDTIELTRQVKEKLAKNGICQRIFGEKVLWLSQGSVSDMLSRPKPWSKLTQKGREPFIRMQLWLNG [G32W],-0.377 ± 0.11
7,QEVDTIELTRQVKEKLAKNGICQRIFGEKVLPLSQGSVSDMLSRPKPWSKLTQKGREPFIRMQLWLNG [G32P],-0.21 ± 0.083
8,QEVDTIELTRQVKEKLAKNGICQRIFGEKVLQLSQGSVSDMLSRPKPWSKLTQKGREPFIRMQLWLNG [G32Q],-0.138 ± 0.097
9,QEVDTIELTRQVKEKLAKNGICQRIFGEKVLVLSQGSVSDMLSRPKPWSKLTQKGREPFIRMQLWLNG [G32V],-0.645 ± 0.076
10,QEVDTIELTRQVKEKLAKNGICQRIFGEKVLKLSQGSVSDMLSRPKPWSKLTQKGREPFIRMQLWLNG [G32K],-0.1 ± 0.079
11,QEVDTIELTRQVKEKLAKNGICQRIFGEKVLRLSQGSVSDMLSRPKPWSKLTQKGREPFIRMQLWLNG [G32R],-0.029 ± 0.062
12,QEVDTIELTRQVKEKLAKNGICQRIFGEKVLNLSQGSVSDMLSRPKPWSKLTQKGREPFIRMQLWLNG [G32N],-0.204 ± 0.087
13,QEVDTIELTRQVKEKLAKNGICQRIFGEKVLGLGQGSVSDMLSRPKPWSKLTQKGREPFIRMQLWLNG [S34G],-0.132 ± 0.056
14,QEVDTIELTRQVKEKLAKNGICQRIFGEKVLGLRQGSVSDMLSRPKPWSKLTQKGREPFIRMQLWLNG [S34R],0.02 ± 0.055
15,QEVDTIELTRQVKEKLAKNGICQRIFGEKVLGLMQGSVSDMLSRPKPWSKLTQKGREPFIRMQLWLNG [S34M],-0.017 ± 0.07
16,QEVDTIELTRQVKEKLAKNGICQRIFGEKVLGLDQGSVSDMLSRPKPWSKLTQKGREPFIRMQLWLNG [S34D],-0.046 ± 0.1
17,QEVDTIELTRQVKEKLAKNGICQRIFGEKVLGLKQGSVSDMLSRPKPWSKLTQKGREPFIRMQLWLNG [S34K],0.017 ± 0.068
18,QEVDTIELTRQVKEKLAKNGICQRIFGEKVLGLQQGSVSDMLSRPKPWSKLTQKGREPFIRMQLWLNG [S34Q],-0.125 ± 0.096
19,QEVDTIELTRQVKEKLAKNGICQRIFGEKVLGLLQGSVSDMLSRPKPWSKLTQKGREPFIRMQLWLNG [S34L],-0.113 ± 0.049
20,QEVDTIELTRQVKEKLAKNGICQRIFGEKVLGLFQGSVSDMLSRPKPWSKLTQKGREPFIRMQLWLNG [S34F],0.008 ± 0.091

row,Variant,abundance fitness
1,QEVDTIELTRQVKEKLAKNGICQRIFGEKVLGLEQGSVSDMLSRPKPWSKLTQKGREPFIRMQLWLNG [S34E],-0.004 ± 0.072
2,QEVDTIELTRQVKEKLAKNGICQRIFGEKVLGLAQGSVSDMLSRPKPWSKLTQKGREPFIRMQLWLNG [S34A],-0.01 ± 0.076
3,QEVDTIELTRQVKEKLAKNGICQRIFGEKVLGLHQGSVSDMLSRPKPWSKLTQKGREPFIRMQLWLNG [S34H],-0.139 ± 0.18
4,QEVDTIELTRQVKEKLAKNGICQRIFGEKVLGLCQGSVSDMLSRPKPWSKLTQKGREPFIRMQLWLNG [S34C],-0.09 ± 0.084
5,QEVDTIELTRQVKEKLAKNGICQRIFGEKVLGLPQGSVSDMLSRPKPWSKLTQKGREPFIRMQLWLNG [S34P],0.101 ± 0.069
6,QEVDTIELTRQVKEKLAKNGICQRIFGEKVLGISQGSVSDMLSRPKPWSKLTQKGREPFIRMQLWLNG [L33I],0.144 ± 0.088
7,QEVDTIELTRQVKEKLAKNGICQRIFGEKVLGFSQGSVSDMLSRPKPWSKLTQKGREPFIRMQLWLNG [L33F],-0.134 ± 0.067
8,QEVDTIELTRQVKEKLAKNGICQRIFGEKVLGKSQGSVSDMLSRPKPWSKLTQKGREPFIRMQLWLNG [L33K],-0.092 ± 0.07
9,QEVDTIELTRQVKEKLAKNGICQRIFGEKVLGPSQGSVSDMLSRPKPWSKLTQKGREPFIRMQLWLNG [L33P],-0.49 ± 0.082
10,QEVDTIELTRQVKEKLAKNGICQRIFGEKVLGHSQGSVSDMLSRPKPWSKLTQKGREPFIRMQLWLNG [L33H],-0.174 ± 0.083
11,QEVDTIELTRQVKEKLAKNGICQRIFGEKVLGESQGSVSDMLSRPKPWSKLTQKGREPFIRMQLWLNG [L33E],-0.262 ± 0.081
12,QEVDTIELTRQVKEKLAKNGICQRIFGEKVLGGSQGSVSDMLSRPKPWSKLTQKGREPFIRMQLWLNG [L33G],-0.219 ± 0.061
13,QEVDTIELTRQVKEKLAKNGICQRIFGEKVLGWSQGSVSDMLSRPKPWSKLTQKGREPFIRMQLWLNG [L33W],-0.115 ± 0.076
14,QEVDTIELTRQVKEKLAKNGICQRIFGEKVLGVSQGSVSDMLSRPKPWSKLTQKGREPFIRMQLWLNG [L33V],0.025 ± 0.046
15,QEVDTIELTRQVKEKLAKNGICQRIFGEKVLGRSQGSVSDMLSRPKPWSKLTQKGREPFIRMQLWLNG [L33R],-0.213 ± 0.059
16,QEVDTIELTRQVKEKLAKNGICQRIFGEKVLGQSQGSVSDMLSRPKPWSKLTQKGREPFIRMQLWLNG [L33Q],-0.232 ± 0.089
17,QEVDTIELTRQVKEKLAKNGICQRIFGEKVLGASQGSVSDMLSRPKPWSKLTQKGREPFIRMQLWLNG [L33A],-0.079 ± 0.06
18,QEVDTIELTRQVKEKLAKNGICQRIFGEKVLGMSQGSVSDMLSRPKPWSKLTQKGREPFIRMQLWLNG [L33M],-0.045 ± 0.068
19,QEVDTIELTRQVKEKLAKNGICQRIFGEKVLGYSQGSVSDMLSRPKPWSKLTQKGREPFIRMQLWLNG [L33Y],-0.229 ± 0.078
20,QEVDTIELTRQVKEKLAKNGICQRIFGEKVLGTSQGSVSDMLSRPKPWSKLTQKGREPFIRMQLWLNG [L33T],-0.06 ± 0.061
